# Laboratory results taken from patent US11266746B2, “Therapeutic antitumor combination of a TLR4 ligand with other treatments” (THE UNITED STATES OF AMERICA, as represented by the …, priority 2016, dated 2022).
# “Also recorded” adds a separate entry of the source.
# B1: High Mobility Group Nucleosome-binding protein 1 (protein, UniProt P05114 1-100, looked up)
# Non-histone chromosomal …: MPKRKVSSAEGAAKEEPKRRSARLSAKPPAKVEAKPKKAAAKDKSSDKKVQTKGKRGAKGKQAEVANQETKEDLPAENGETKTEESPASDEAGEKEAKSD
# notes: TLR4 ligand
# Test system: CT26 tumors
# Test: Treatment of small (about 5 mm) established CT26 tumors in mice
# Format: in vivo, Balb/c mice
# Method: Balb/c mice were inoculated subcutaneously with 100,000 or 200,000 CT26 cells on day 1. […] On days 8, 12, 15 and 19 mice were administered PBS or 1 μg, 10 μg or 50 μg of rHMGN1. Tumor growth was monitored and plotted.
# Small CT26 tumors were treated by a combination of one intraperitoneal (i.p.) injection of a suboptimal dose of cyclophosphamide or Cytoxan to reduce regulatory T cells (Treg), a key suppressor cell type in tumors, and four intratumoral (i.t.) administrations of HMGN1 within two weeks. Balb/c mice were subcutaneously inoculated with 100,000 or 200,000 CT26 cells on day 1. When the tumor size reached about 5 mm in diameter (by 4-6 days after tumor inoculation), mice were administered one dose of cyclophosphamide (100 mg/kg, i,p.) and/or HMGN1 protein (10 μg, intratumorally), twice a week for 2 weeks. PBS was administered i.t. or i.p. Tumor growth was monitored and plotted.
molecule,measurement,setting,value
B1,tumor growth,"small (about 5 mm) CT26 tumors, intratumoral rHMGN1 1, 10 or 50 μg on days 8, 12, 15 and 19","slowed down tumor growth, but did not completely eradicate tumors; also recorded: inhibited tumor growth in a dose dependent manner"
same,percent survival,"small CT26 tumors, intratumoral rHMGN1",improvement in percent survival
